Values of other authors in PMC7708053.

Biological target: T1, hnRNP L (cited Kd) (UniProt P14866)
T1 sequence: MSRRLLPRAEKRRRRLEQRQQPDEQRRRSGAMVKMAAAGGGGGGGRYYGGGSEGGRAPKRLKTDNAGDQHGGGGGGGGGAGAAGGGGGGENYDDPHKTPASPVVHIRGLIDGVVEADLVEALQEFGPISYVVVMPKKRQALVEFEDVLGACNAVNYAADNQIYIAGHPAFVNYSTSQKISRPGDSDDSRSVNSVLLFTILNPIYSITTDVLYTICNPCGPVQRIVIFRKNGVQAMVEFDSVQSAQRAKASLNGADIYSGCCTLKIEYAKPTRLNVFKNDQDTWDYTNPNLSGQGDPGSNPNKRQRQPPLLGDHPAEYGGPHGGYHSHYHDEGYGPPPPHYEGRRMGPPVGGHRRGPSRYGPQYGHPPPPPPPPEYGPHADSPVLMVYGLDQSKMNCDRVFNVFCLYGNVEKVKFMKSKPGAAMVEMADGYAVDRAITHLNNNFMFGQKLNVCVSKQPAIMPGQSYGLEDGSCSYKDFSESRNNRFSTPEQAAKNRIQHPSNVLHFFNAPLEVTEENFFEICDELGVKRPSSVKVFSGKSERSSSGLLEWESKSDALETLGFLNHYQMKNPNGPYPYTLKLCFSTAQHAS
Test: not stated (cited)
Details: 50 pmol biotinylated RNA on streptavidin beads with HeLa lysate in RIPA (50 mM Tris-Cl pH 7.4, 150 mM NaCl, 5 mM EDTA, 1% NP-40), washed at 300 mM KCl …

AUACAUGACACACACACGCA [CA-SELEX#51 20-mer]
Kd: 7.2 nM
